Measurements published in US20160000936A1 (AbbVie / Abbott, published 2016).

T1: murine TNF (mouse, UniProt P06804 80-235)
T1 construct: also called mouse TNFα; TNFα
T1 sequence (looked up): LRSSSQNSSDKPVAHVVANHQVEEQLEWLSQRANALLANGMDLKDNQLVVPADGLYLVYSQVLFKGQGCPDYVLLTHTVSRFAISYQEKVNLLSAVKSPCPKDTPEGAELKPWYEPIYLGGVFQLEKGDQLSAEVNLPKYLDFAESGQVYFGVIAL

T2: murine IL-17 (mouse, UniProt Q62386 26-158)
T2 construct: also called mouse IL-17
T2 sequence (looked up): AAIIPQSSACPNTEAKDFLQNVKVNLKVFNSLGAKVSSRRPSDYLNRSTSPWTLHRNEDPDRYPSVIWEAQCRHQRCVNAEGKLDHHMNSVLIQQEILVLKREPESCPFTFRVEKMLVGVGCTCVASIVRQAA


What was measured:
murine TNF = biological target: T1, murine TNF; test: assay not described; table titled 'Source And Binding Information'
murine IL-17 = biological target: T2, murine IL-17; test: as above

Binder	IC50 (murine TNF)	IC50 (murine IL-17)
anti-murine TNF antibody 8C11 (antibody, mouse IgG2c, V domains shown, also called 8C11 anti-TNF antibody; anti-TNFα antibody 8C11) VH: EFQLQQSGPELVKPGASVRISCKASGYSFTDYNMNWVKQSNGKSLEWVGVINPNYGSSTYNQKFKGKATLTVDQSSSTAYMQLNSLTSEDSAVYYCARKWGQLGRGFFDVWGTGTTVTVSS VL: QIVLSQSPAILSASPGEKVTMTCRASSSVSYMHWFQQKPGSSPKPWIYATSNLASGVPARFSGSGSGTSYSLTISRVEAEDAATYYCQQWSSSPLTFGAGTKLELKR	2 nM	–
anti-mouse TNF/IL-17 DVD-Ig protein 8C11/10F7M11 (bispecific antibody, human IgG1, kappa, L234A L235A, The constant regions of the protein actually assayed are therefore uncertain; also called 8C11/10F7-DVD-Ig protein; 8C11/10F7M11 anti-TNF/IL-17 DVD-Ig protein) heavy: not shown light: QIVLSQSPAILSASPGEKVTMTCRASSSVSYMHWFQQKPGSSPKPWIYATSNLASGVPARFSGSGSGTSYSLTISRVEAEDAATYYCQQWSSSPLTFGAGTKLELKRGGSGGGGSGQIVLTQSPAIMSASPGEKVTMTCSASSSISYIYWFQQKPGTSPKRWIYATFELASGVPARFSGSGSGTSYSLTISSMEAEDAATYYCHQRSSYPWTFGGGSKLEIKRTVAAPSVFIFPPSDEQLKSGTASVVCLLNNFYPREAKVQWKVDNALQSGNSQESVTEQDSKDSTYSLSSTLTLSKADYEKHKVYACEVTHQGLSSPVTKSFNRGEC	2 nM	0.13 nM
